# Measured values from publication PMC10945505.
# Key:
# F-FGF21∆N = F-FGF21∆N (UniProt Q9NSA1); assay: BLI; Octet Red 96, 30°C, 1000 rpm; F-FGF21 proteins at 50 nM captured on AHC (anti-hIgG Fc capture) biosensors, βKlotho in running buffer at 0.2743-200 nM; global fit, 1:1 binding model, monovalent KD
# F-FGF21FL = F-FGF21FL (UniProt Q9NSA1); assay: as above
substance,measurement,setting,value
Human βKlotho (from UniProt Q86Z14 1-996) (receptor),Kd,F-FGF21∆N,11.8 nM
same,koff,F-FGF21∆N,0.00195 s⁻¹
same,kon,F-FGF21∆N,166000 M⁻¹ s⁻¹
same,Kd,F-FGF21FL,10.1 nM
same,koff,F-FGF21FL,0.00124 s⁻¹
same,kon,F-FGF21FL,122000 M⁻¹ s⁻¹
